Assay results taken from US20230220021A1 (UNIVERSITY OF COPENHAGEN, published 2023).
Like-named read-outs stand apart in the source and are kept apart here. Where no end group is shown, it is not given here. [ ]: non-standard residue; d: D form.

Key:
PSD-95-PDZ2 V229A = target: T1, PSD-95-PDZ2 V229A (UniProt P78352 160-246); assay: FP saturation
T1 construct: domain: PDZ2; not shown: 7x His tag

[1] = target: T2, (7× His)-PSD-95-PDZ2 wild type (UniProt P78352 160-246); assay: FP saturation
T2 construct: domain: PDZ2; recombinant from E. coli; also called PSD-95-PDZ2 WT; not shown: 7x His tag

PSD-95-PDZ2 H225A = target: T3, PSD-95-PDZ2 H225A (UniProt P78352 160-246); assay: FP saturation
T3 construct: domain: PDZ2; not shown: 7x His tag

PSD-95-PDZ2 K165A = target: T4, PSD-95-PDZ2 K165A (UniProt P78352 160-246); assay: FP saturation
T4 construct: domain: PDZ2; also called K165 mutation; not shown: 7x His tag

PSD-95-PDZ2 S173A = target: T5, PSD-95-PDZ2 S173A; assay: FP saturation, TAMRA probe titrated with the protein
T5 chain: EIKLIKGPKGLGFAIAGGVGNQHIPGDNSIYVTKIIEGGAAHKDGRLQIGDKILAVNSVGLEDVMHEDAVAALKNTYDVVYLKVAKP

PSD-95-PDZ2 T192A = target: T6, PSD-95-PDZ2 T192A; assay: as above
T6 chain: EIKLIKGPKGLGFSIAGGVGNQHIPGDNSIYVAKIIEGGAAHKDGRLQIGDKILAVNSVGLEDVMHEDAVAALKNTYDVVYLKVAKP

PSD-95-PDZ2 K168A = target: T7, PSD-95-PDZ2 K168A; assay: as above
T7 chain: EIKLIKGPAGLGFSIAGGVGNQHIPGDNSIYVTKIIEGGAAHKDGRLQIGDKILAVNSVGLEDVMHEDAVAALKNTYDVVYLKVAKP

PSD-95-PDZ2 K233A = target: T8, PSD-95-PDZ2 K233A; assay: as above
T8 chain: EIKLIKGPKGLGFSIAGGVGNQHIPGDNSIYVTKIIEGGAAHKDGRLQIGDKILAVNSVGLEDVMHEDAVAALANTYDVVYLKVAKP

PSD-95-PDZ2 N180A = target: T9, PSD-95-PDZ2 N180A; assay: as above
T9 chain: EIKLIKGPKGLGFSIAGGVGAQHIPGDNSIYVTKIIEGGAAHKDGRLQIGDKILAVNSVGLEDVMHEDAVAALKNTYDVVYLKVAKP

PSD-95-PDZ2 E226A = target: T10, PSD-95-PDZ2 E226A; assay: as above
T10 chain: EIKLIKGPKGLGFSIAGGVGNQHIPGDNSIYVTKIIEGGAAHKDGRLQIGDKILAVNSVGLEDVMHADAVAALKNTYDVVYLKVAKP

PSD-95-PDZ2 K193A = target: T11, PSD-95-PDZ2 K193A; assay: as above
T11 chain: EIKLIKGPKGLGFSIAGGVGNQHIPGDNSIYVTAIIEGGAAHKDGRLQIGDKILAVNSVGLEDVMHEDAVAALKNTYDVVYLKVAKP

[2] = target: T2, (7× His)-PSD-95-PDZ2 wild type; assay: FP competition
[3] = target: T2, (7× His)-PSD-95-PDZ2 wild type; assay: ITC, 25 °C
[4] = target: T2, (7× His)-PSD-95-PDZ2 wild type; assay: FP competition; remark: listed apart in the source

B1: TAMRA labelled C-terminal GluN2B peptide (KLSSIESDV-COOH) (peptide)
peptide: KLSSIESDV-OH
modifications: also: TAMRA label (site not given here)
notes: also called C-terminal GluN2B TAMRA probe; GluN2B canonical peptide
Which “fold loss in affinity vs PDZ2 WT” value (PSD-95-PDZ2 V229A) does the source give for B1 here?
Its value is 2 fold.

What about the Kd [1] of the same binder?
The Kd was 4 µM.

And the “fold decrease in affinity vs PDZ2 WT” value (PSD-95-PDZ2 H225A)?
The value was 5 fold.

And the “fold loss in affinity vs PDZ2 WT” value (PSD-95-PDZ2 K165A)?
Its value is 5 fold.

Does B1 bind (PSD-95-PDZ2 S173A)?
Result: binds

Does B1 bind (PSD-95-PDZ2 T192A)?
Result: binds

Does B1 bind (PSD-95-PDZ2 K168A)?
Result: binds

Does B1 bind (PSD-95-PDZ2 K233A)?
Result: binds

Does B1 bind (PSD-95-PDZ2 N180A)?
Result: binds

Does B1 bind (PSD-95-PDZ2 E226A)?
Result: binds

Does B1 bind (PSD-95-PDZ2 K193A)?
Result: binds

TXLETTFTGDGTPKTIRVTQPGQ (cyclic; D-Pro; His(3-Me) at 106) [cyclic nNOS β-hairpin peptide His(3-Me)] was tested. Which Ki [2] did it give?
The Ki was 0.4 µM.

B2: cyclic nNOS β-hairpin peptide (WT), Cyclo-(THLETTFTGDGTPKTIRVTQpG(Qα)) (peptide)
peptide: cyclo(THLETTFTGDGTPKTIRVTQ[dP]GQ)
SMILES: CC[C@H](C)[C@@H]1NC(=O)[C@H]([C@@H](C)O)NC(=O)[C@H](CCCCN)NC(=O)[C@@H]2CCCN2C(=O)[C@H]([C@@H](C)O)NC(=O)CNC(=O)[C@H](CC(=O)O)NC(=O)CNC(=O)[C@H]([C@@H](C)O)NC(=O)[C@H](Cc2ccccc2)NC(=O)[C@H]([C@@H](C)O)NC(=O)[C@H]([C@@H](C)O)NC(=O)[C@H](CCC(=O)O)NC(=O)[C@H](CC(C)C)NC(=O)[C@H](Cc2c[nH]cn2)NC(=O)[C@H]([C@@H](C)O)NC(=O)[C@H](CCC(N)=O)NC(=O)CNC(=O)[C@H]2CCCN2C(=O)[C@H](CCC(N)=O)NC(=O)[C@H]([C@@H](C)O)NC(=O)[C@H](C(C)C)NC(=O)[C@H](CCCNC(=N)N)NC1=O
notes: also called Cyclic WT; Wild type mimic
For B2, which “-ΔS*T” value [3] is on record?
Its value is 0.35 kcal/mol.

And the Kd [3]?
The Kd was 2.15 µM.

What about the ΔH [3] of the same binder?
Its ΔH is -7.74 kcal/mol.

B3: cyclic nNOS β-hairpin peptide G115P T116E (peptide)
peptide: cyclo(THLETTFTGDPEPKTIRVTQ[dP]GQ)
SMILES: CC[C@H](C)[C@@H]1NC(=O)[C@H]([C@@H](C)O)NC(=O)[C@H](CCCCN)NC(=O)[C@@H]2CCCN2C(=O)[C@H](CCC(=O)O)NC(=O)[C@@H]2CCCN2C(=O)[C@H](CC(=O)O)NC(=O)CNC(=O)[C@H]([C@@H](C)O)NC(=O)[C@H](Cc2ccccc2)NC(=O)[C@H]([C@@H](C)O)NC(=O)[C@H]([C@@H](C)O)NC(=O)[C@H](CCC(=O)O)NC(=O)[C@H](CC(C)C)NC(=O)[C@H](Cc2c[nH]cn2)NC(=O)[C@H]([C@@H](C)O)NC(=O)[C@H](CCC(N)=O)NC(=O)CNC(=O)[C@H]2CCCN2C(=O)[C@H](CCC(N)=O)NC(=O)[C@H]([C@@H](C)O)NC(=O)[C@H](C(C)C)NC(=O)[C@H](CCCNC(=N)N)NC1=O
How did the Ki [4] turn out when B3 was run?
The Ki was 22.5 µM.

B4: cyclic nNOS β-hairpin peptide T112W G115P (peptide)
peptide: cyclo(THLETTFWGDPTPKTIRVTQ[dP]GQ)
SMILES: CC[C@H](C)[C@@H]1NC(=O)[C@H]([C@@H](C)O)NC(=O)[C@H](CCCCN)NC(=O)[C@@H]2CCCN2C(=O)[C@H]([C@@H](C)O)NC(=O)[C@@H]2CCCN2C(=O)[C@H](CC(=O)O)NC(=O)CNC(=O)[C@H](Cc2c[nH]c3ccccc23)NC(=O)[C@H](Cc2ccccc2)NC(=O)[C@H]([C@@H](C)O)NC(=O)[C@H]([C@@H](C)O)NC(=O)[C@H](CCC(=O)O)NC(=O)[C@H](CC(C)C)NC(=O)[C@H](Cc2c[nH]cn2)NC(=O)[C@H]([C@@H](C)O)NC(=O)[C@H](CCC(N)=O)NC(=O)CNC(=O)[C@H]2CCCN2C(=O)[C@H](CCC(N)=O)NC(=O)[C@H]([C@@H](C)O)NC(=O)[C@H](C(C)C)NC(=O)[C@H](CCCNC(=N)N)NC1=O
With B4 as the binder, how does the Ki [4] read?
The Ki was 0.95 µM.

cyclo(C(TAMRA maleimide)THLETTFTGDGTPKTIRVTQ[dP]G) (also called cyclic nNOS TAMRA probe) [cyclic nNOS β-hairpin TAMRA probe, cyclo-(CTHLETTFTGDGTPKTIRVTQpG) labelled with TAMRA] was tested. Which “fold loss in affinity vs PDZ2 WT” value (PSD-95-PDZ2 V229A) did it give?
Its value is 6 fold.

And the Kd [1]?
Its Kd is 1 µM.

What about the “fold loss in affinity vs PDZ2 WT” value (PSD-95-PDZ2 K165A) of the same binder?
Its value is 4 fold.

TXLETTFTGDGTPKTIRVTQPGQ (cyclic; D-Pro; His(1-Me) at 106) [cyclic nNOS β-hairpin peptide His(1-Me)] was tested. Which Ki [2] did it give?
The Ki was 2.9 µM.
